Here are results for one molecule from US20160002322A1 (INDUSTRY ACADEMIC COOPERATION FOUNDATION HALLYM UNIVERSITY, published 2016).

No end group written: not given here.

In test [1] the target is mouse TM4SF5 peptide (mTM4SF5) (mouse). Description: SPR (Biacore T100, 25 C), biotinylated mTM4SF5 peptide captured on a streptavidin-coated CM4 chip, antibody injected at 2 to 32 nM. As to the method: (§1) Affinity of anti-hTM4SF5 monoclonal antibody binding to human TM4SF5 peptide (hTM4SF5) and mouse TM4SF5 peptide (mTM4SF5) was measured using Biacore T100 (Biacore) at 25° C. Biotinylated peptides were captured on individual flow cell surface of a CM4 sensor chip coated with streptoavidin. Biotin served as a negative control. Anti-TM4SF5 monoclonal antibody at concentrations ranging from 2 to 32 nM was injected at a flow rate of […]. Data were evaluated using Biacore Bia evaluation software (version 3.0).

The target in test [2] is T1, hTM4SF5 peptide (138-NRTLWDRCEAPPRV-151) (human, also: biotinylated for SPR capture (position not given here)).
T1 construct: also called human TM4SF5 peptide
T1 peptide: NRTLWDRCEAPPRV
The test is described as follows: SPR (Biacore T100, 25 C), biotinylated hTM4SF5 peptide captured on a streptavidin-coated CM4 chip, antibody injected at 2 to 32 nM. The procedure:
as §1
On the technique in general: Surface plasmon resonance follows binding to a sensor surface in real time, without labels.

The target in test [3] is mouse TM4SF5 peptide (mTM4SF5) (mouse). Description: SPR, Biacore T100, 25 C; biotinylated peptide captured on streptavidin-coated CM4 chip, antibody injected at 2-32 nM. The procedure: as §1
Test [4] deals with T1, hTM4SF5 peptide (138-NRTLWDRCEAPPRV-151). The test is described as follows: SPR, Biacore T100, 25 C; biotinylated peptide captured on streptavidin-coated CM4 chip, antibody injected at 2-32 nM; human TM4SF5 (not mouse); peptide on the chip per methods. As to the method: as §1

B1: anti-TM4SF5 monoclonal antibody 2D4-18 (antibody, V domains shown)
VH: GDLVKPGGSLKLSCAASGFTFSSYGMSWVRQTPDKRLEWVATISSGGGYTYYPDSVKGRFTISRDNAKNTLYLQMRSLKSEDTAMYYCARHEGFTTYYFDYWGQGTTLTVSS
VL: LSLPVSLGDQASISCRSSQSILHSSGNTYLEWYLQKPGQSPKLLIYKVSNRFSGVPDRFSGSGSGTDFTLKISRVEAEDLGVYYCFQGSHVPFTFGSGTKLEIKR
notes: DyLight 750-labelled in the biodistribution experiment; also called TM4SF5-targeted mAb (2D4-18); anti-hTM4SF5 monoclonal antibody
On to B1, for which the Kd (usually the concentration at which binding is half-saturated) was 1.87 nM in test [1], 2.74 nM in test [2], roughly 2 nM in test [3] and roughly 2 nM in test [4].
